# Assay results as given in IntAct's records for PubMed 21358628.
# B1: DNA-directed RNA polymerase III subunit RPC3 (Homo sapiens), Q9BUI4 (parent)
# chain: MTQAEIKLCSLLLQEHFGEIVEKIGVHLIRTGSQPLRVIAHDTGTSLDQVKKALCVLVQHNLVSYQVHKRGVVEYEAQCSRVLRMLRYPRYIYTTKTLYSDTGELIVEELLLNGKLTMSAVVKKVADRLTETMEDGKTMDYAEVSNTFVRLADTHFVQRCPSVPTTENSDPGPPPPAPTLVINEKDMYLVPKLSLIGKGKRRRSSDEDAAGEPKAKRPKYTTDNKEPIPDDGIYWQANLDRFHQHFRDQAIVSAVANRMDQTSSEIVRTMLRMSEITTSSSAPFTQPLSSNEIFRSLPVGYNISKQVLDQYLTLLADDPLEFVGKSGDSGGGMYVINLHKALASLATATLESVVQERFGSRCARIFRLVLQKKHIEQKQVEDFAMIPAKEAKDMLYKMLSENFMSLQEIPKTPDHAPSRTFYLYTVNILSAARMLLHRCYKSIANLIERRQFETKENKRLLEKSQRVEAIIASMQATGAEEAQLQEIEEMITAPERQQLETLKRNVNKLDASEIQVDETIFLLESYIECTMKRQ
# B2: DNA-directed RNA polymerase III subunit RPC3 (Homo sapiens), Q9BUI4 (parent)
# chain: B1 chain
# partner: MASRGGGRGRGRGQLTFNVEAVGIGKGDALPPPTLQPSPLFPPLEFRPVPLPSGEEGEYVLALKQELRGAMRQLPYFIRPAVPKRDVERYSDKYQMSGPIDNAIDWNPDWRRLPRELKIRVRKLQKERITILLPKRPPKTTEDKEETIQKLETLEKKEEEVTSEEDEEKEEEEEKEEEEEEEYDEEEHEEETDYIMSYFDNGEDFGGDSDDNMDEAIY
# Variants of: B1
# Settings: with rpc7_human POLR3G
row,effect of a mutation on the interaction,Variant
1,disrupting interaction,MTQAEIKLCSLLLQEHFGEIVEKIGVHLIRTGSQPLRVIAHDTGTSLDQVKKALCVLVQHNLVSYQVHKRGVVEYEAQCSRVLRMLRYPRYIYTTKTLYSDTGELIVEELLLNGKLTMSAVVKKVADRLTETMEDGKTMDYAEVSNTFVRLADTHFVQRCPSVPTTENSDPGPPPPAPTLVINEKDMYLVPKLSLIGKGKRRRSSDEDAAGEPKAKRPKYTTDNKEPIPDDGIYWQANLDRFHQHFRDQAIVSAVANRMDQTSSEIVRTMLRMSEITTSSSAPFTQPLSSNEIFRSLPVGYNISKQVLDQYKTLLADDPLEFVGKSGDSGGGMYVINLHKALASLATATLESVVQERFGSRCARIFRLVLQKKHIEQKQVEDFAMIPAKEAKDMLYKMLSENFMSLQEIPKTPDHAPSRTFYLYTVNILSAARMLLHRCYKSIANLIERRQFETKENKRLLEKSQRVEAIIASMQATGAEEAQLQEIEEMITAPERQQLETLKRNVNKLDASEIQVDETIFLLESYIECTMKRQ [L312K]

# Variants of: B2
# Settings: with rpc7l_human POLR3GL
row,effect of a mutation on the interaction,Variant
1,disrupting interaction,MTQAEIKLCSLLLQEHFGEIVEKIGVHLIRTGSQPLRVIAHDTGTSLDQVKKALCVLVQHNLVSYQVHKRGVVEYEAQCSRVLRMLRYPRYIYTTKTLYSDTGELIVEELLLNGKLTMSAVVKKVADRLTETMEDGKTMDYAEVSNTFVRLADTHFVQRCPSVPTTENSDPGPPPPAPTLVINEKDMYLVPKLSLIGKGKRRRSSDEDAAGEPKAKRPKYTTDNKEPIPDDGIYWQANLDRFHQHFRDQAIVSAVANRMDQTSSEIVRTMLRMSEITTSSSAPFTQPLSSNEIFRSLPVGYNISKQVLDQYKTLLADDPLEFVGKSGDSGGGMYVINLHKALASLATATLESVVQERFGSRCARIFRLVLQKKHIEQKQVEDFAMIPAKEAKDMLYKMLSENFMSLQEIPKTPDHAPSRTFYLYTVNILSAARMLLHRCYKSIANLIERRQFETKENKRLLEKSQRVEAIIASMQATGAEEAQLQEIEEMITAPERQQLETLKRNVNKLDASEIQVDETIFLLESYIECTMKRQ [L312K]
